Experimental data taken from patent publication US20100256040A1 (priority 2001, published 2010).

Biological target: T1, interaction between GST-p6 and myc-Tsg101(1-207) (Homo sapiens, UniProt Q99816)
T1 construct: myc-tagged Tsg101 (residues 1-207); made in house; host or cells: Drosophila S2 cells, with Tsg101 used as crude cell lysate
T1 sequence (Q99816 1-207): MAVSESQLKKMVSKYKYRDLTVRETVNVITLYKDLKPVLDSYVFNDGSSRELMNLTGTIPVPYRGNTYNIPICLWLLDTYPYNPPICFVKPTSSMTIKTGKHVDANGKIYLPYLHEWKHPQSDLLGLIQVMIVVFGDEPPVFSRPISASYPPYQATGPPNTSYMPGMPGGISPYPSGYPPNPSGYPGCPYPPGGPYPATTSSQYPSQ
Test: Competitive inhibition of GST-p6 : myc-Tsg101(1-207) binding on plates (fluorescence detection)
Details: competitive inhibition curve, FIG. 1
Protocol: A fusion protein with a GST tag fused to the HIV-1 GAGp6 domain was recombinantly expressed and purified by chromatography. In addition, a GAGp6 peptide containing the first 14 amino acid residues (“p6(1-14)”) was synthesized chemically by standard peptide synthesis methods. The peptide was purified by conventional protein purification techniques, e.g., by chromatography.
Nunc/Nalgene Maxisorp plates were incubated overnight at 4° C. or for 1-2 hrs at room temperature in 100 μl of a protein coupling solution containing purified GST-p6 and 50 mM Carbonate, pH=9.6. This allowed the attachment of the GST-p6 fusion protein to the plates. Liquids in the plates were then emptied and wells filled with 400 μl/well of a blocking buffer (SuperBlock; Pierce-Endogen, Rockford, Ill.). […]
Plates were then washed 4×100 μl with 1×PBST solution (Invitrogen; Carlsbad, Calif.). […] Plates were then read on a Packard Fusion instrument at an excitation wavelength of 325 nm and an emission wavelength of 420 nm. […]
Different concentrations of the p6(1-14) peptide were tested, and the relative intensities of the fluorescence signals obtained at different concentrations were plotted against the peptide concentrations. […]

## p6(1-14): chemically synthesized GAGp6 peptide containing the first 14 amino acid residues (LQSRPEPTAPPEES)
  inhibition of protein-protein interaction between GST-p6 and myc-Tsg101(1-207): capable of inhibiting protein-protein interaction
